Experimental data as given in publication PMC6221140.

B1: SpoIID (natural protein)
chain: MKNPLVVLLGFVTCSVLVPSLITLVSYKNVELTEKPESPVSINKTIKKSDIEDKGNKEEKNTVNYETVNKKAPIINVYNHITGKTEKMDMENYLCGVLAGEMSSEFDIEALKAQSVAARTYVVYKQEHGKSSKHKNAVVCTDYKHCQEYKSYDTLKKLNGEEWIKNKYSKIQEAVRGTKGQIITYNDKAILPLYFSTSSGKTENSEEVFSAKYPYLKSVESPYDKYSPKFASTLKISNTDFVKSLRRAYSTIVIDVNNLSKQVSITKRSDAGTVEKIKLGNKELTGKDIRTVFKLNSANFDIKFGEGYIDFVVKGYGHGVGMSQWGAEGMAEEGYKYYDILSHYYTDTKIKDIY

What was measured:
Assay in all cases: two-hybrid; BACTH in E. coli BTH101 (cya); full length proteins fused to the C-terminus of T18 (pUT18C) or T25 (pKT25) of CyaA; blue colonies on X-Gal/IPTG plates, 30°C, 24 h, and β-galactosidase activity of liquid cultures in Miller units; biological duplicate
[1] = target: SpoIIIAH (Clostridium difficile)
[2] = target: SpoIIQ (Clostridium difficile)
[3] = target: SpoIIM (Clostridium difficile)
[4] = target: SpoIIP H142R (Clostridium difficile)

Row | Molecule | β-galactosidase activity [1] | β-galactosidase activity [2] | β-galactosidase activity [3] | β-galactosidase activity [4]
1 | SpoIIQ (natural protein) | 701 Miller Units | 743 MU |  | 
2 | B1 | 656 MU | 761 MU | 699 MU | 229 MU
